This test concerns the target human CLEC14A (endogenous, in HUVECs) (human) (UniProt Q86T13). Description: cell-based or functional assay.

From patent US20120276000A1 come the findings set out here.

Sequence of UniProt Q86T13 (Q86T13 22-490): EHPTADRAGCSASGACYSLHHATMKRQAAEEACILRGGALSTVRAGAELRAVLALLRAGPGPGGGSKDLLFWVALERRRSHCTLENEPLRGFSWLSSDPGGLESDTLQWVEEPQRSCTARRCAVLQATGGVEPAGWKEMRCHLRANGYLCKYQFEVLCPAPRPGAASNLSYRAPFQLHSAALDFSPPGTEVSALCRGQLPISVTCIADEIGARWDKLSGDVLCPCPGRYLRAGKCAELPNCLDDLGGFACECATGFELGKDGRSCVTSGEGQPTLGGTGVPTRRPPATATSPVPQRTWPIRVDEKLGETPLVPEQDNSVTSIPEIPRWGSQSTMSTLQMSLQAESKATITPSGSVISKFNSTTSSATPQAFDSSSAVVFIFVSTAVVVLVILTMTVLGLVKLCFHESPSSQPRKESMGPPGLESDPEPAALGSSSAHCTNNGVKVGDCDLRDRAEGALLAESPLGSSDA

B1: anti-CLEC14A monoclonal antibody CRT-3 (antibody, from another filing, IgG1, V domains shown)
VH: EVQLQQSGTVLARPGASVKMSCKASGYTFTSYWMHWVKQRPGQGLEWIGAIYPGNSDTSYNQKFKGKAKLTAVTSTSTAYMELSSLTNEDSAVFYCTHYYGSDYAMDYWGQGTSVTV
VL: QIVLTQSPAIMSASLGERVTMTCTASSSVSSSYLHWYQQKPGSSPKLWIYSTSNLASGVPARFSGSGSGTSYSLTISSMEAEDAATYYCHQYHRSPRTFGGGTKLEIKR
For B1, the wound area remaining open at 12 h, HUVEC scratch wound healing assay, 10 µg/ml antibody stood at 25%.
